Test results as given in US20040166543A1 (Dana-Farber, published 2004).

Experiments:
[1] = target: T1, glutathione S-transferase (GST) (UniProt P08515 1-218 = GST); assay: GST pull-down, anti-MUC1/CD immunoblot (FIG. 1B)
[2] = target: T1, glutathione S-transferase (GST); assay: GST pull-down, anti-MUC1/CD immunoblot (FIG. 4A)
Protocol: The proteins in the eight different reaction mixtures were incubated with either GST or GST fused to β-catenin (“GST-β-Cat”). The resulting mixtures were incubated with glutathione-Sepharose 4B™ beads.
The beads were then added to the phosphorylation reaction mixture (described above) which was incubated for 1 h at 4° C.

T1 sequence (P08515 whole entry): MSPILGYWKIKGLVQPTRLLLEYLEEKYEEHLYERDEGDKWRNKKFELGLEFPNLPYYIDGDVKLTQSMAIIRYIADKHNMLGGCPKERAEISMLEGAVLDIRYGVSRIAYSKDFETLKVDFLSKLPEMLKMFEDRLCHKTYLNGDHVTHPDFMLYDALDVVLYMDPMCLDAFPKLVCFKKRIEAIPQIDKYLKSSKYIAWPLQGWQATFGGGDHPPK

binding result [1]	binding result [2]	Binder
no binding		MUC1/CD (purified hexahistidine tagged MUC1 cytoplasmic domain), unphosphorylated (other, also called His-MUC1/CD; MUC1/CD (WT); not shown: hexahistidine tag) CQCRRKNYGQLDIFPARDTYHPMSEYPTYHTHGRYVPPSSTDRSPYEKVSAGNGGSSLSYTNPAVAATSANL
	no binding	MUC1/CD phosphorylated by c-Src (incubated with c-Src and ATP) (other, phosphotyrosine at 46 (YEKV site) and at other sites that are not named; made in vitro with purified c-Src and ATP, also called phosphorylated MUC1/CD; not shown: hexahistidine tag) CQCRRKNYGQLDIFPARDTYHPMSEYPTYHTHGRYVPPSSTDRSPYEKVSAGNGGSSLSYTNPAVAATSANL
